Test results as given in patent publication US20070098715A1.

Target: Ten-M2 endogenously expressed on human cancer cell lines (SNB-19 and others) (human) (UniProt Q9NT68)
Experiment: flow cytometry on SNB-19 cells at 4° C., Alexa647 anti-human IgG secondary

Total Bound Fluorescence: 2.2
Substance: isotype control Ab (antibody)
